Assay results taken from PMC12830989, “Subcellular glycan-mannose receptor binding kinetics correlate with myeloid cell function” (Nature Communications, 2025).
Blank lines part the entries; values can stand above or below the substance they belong to. sCy5 = sulfo-Cy5

Target: T1, mannose receptor (MR) on CHO-MR cells (Mus musculus, UniProt Q61830)
T1 construct: expressed in transfected cells; host or cells: CHO (CHO-MR overexpression line, gift of Luisa Martinez-Pomares)
T1 sequence (Q61830 20-1456): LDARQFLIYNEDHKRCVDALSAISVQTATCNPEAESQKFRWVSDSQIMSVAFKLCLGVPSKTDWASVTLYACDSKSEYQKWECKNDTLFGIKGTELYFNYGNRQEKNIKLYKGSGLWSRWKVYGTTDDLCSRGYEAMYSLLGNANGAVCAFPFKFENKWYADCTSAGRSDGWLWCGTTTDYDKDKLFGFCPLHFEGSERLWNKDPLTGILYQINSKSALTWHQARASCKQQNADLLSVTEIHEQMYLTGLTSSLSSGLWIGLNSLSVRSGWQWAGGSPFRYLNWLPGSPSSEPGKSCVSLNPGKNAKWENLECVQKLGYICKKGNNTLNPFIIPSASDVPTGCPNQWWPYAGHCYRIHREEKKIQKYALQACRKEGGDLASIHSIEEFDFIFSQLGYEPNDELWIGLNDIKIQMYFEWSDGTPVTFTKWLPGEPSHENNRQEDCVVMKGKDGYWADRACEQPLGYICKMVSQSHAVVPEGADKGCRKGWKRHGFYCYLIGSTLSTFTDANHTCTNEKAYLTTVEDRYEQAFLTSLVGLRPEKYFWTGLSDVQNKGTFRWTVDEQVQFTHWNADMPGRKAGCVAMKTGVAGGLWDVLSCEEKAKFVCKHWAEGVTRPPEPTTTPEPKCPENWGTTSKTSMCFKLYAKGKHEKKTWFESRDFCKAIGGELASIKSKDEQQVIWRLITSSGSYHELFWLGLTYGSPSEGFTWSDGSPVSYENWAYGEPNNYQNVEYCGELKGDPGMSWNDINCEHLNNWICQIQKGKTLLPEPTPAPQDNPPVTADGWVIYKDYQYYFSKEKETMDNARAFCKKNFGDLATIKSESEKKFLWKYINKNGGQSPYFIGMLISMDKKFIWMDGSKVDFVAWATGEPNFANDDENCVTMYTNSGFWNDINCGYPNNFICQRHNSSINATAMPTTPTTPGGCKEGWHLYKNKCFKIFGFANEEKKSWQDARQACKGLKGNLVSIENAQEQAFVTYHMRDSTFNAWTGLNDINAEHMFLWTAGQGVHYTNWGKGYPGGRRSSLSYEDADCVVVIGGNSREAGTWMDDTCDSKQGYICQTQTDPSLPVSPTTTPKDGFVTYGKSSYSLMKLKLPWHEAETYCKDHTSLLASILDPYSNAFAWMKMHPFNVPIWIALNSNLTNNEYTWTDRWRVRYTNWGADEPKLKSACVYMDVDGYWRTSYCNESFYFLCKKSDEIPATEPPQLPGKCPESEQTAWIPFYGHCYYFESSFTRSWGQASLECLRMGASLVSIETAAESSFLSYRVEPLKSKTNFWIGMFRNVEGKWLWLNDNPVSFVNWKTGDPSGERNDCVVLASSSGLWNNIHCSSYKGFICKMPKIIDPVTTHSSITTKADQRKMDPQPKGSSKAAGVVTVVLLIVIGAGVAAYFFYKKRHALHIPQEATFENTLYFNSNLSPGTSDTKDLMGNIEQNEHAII
Assay: Glyco-PAINT-APP single-molecule glycan binding on CHO-MR cells
Conditions: Suppl. Fig 9, glycan SLP, median
Experimental: Single molecule imaging was performed on a Nikon Ti2 N-STORM system equipped with TIRF module, Z piezo element, perfect focus system for axial drift correction and an OkoLab incubator with temperature and CO2 controller (37 °C and 5% CO2) for live-cell imaging. Recordings were acquired using the 647 nm excitation laser (160 mW, 1.9 kW/cm^2). Upon laser excitation, fluorescence was collected by a 100x 1.49 NA oil-immersion objective, passed through a quad-band dichroic mirror (97335 Nikon), and detected by a Hamamatsu ORCA Flash 4.0 CMOS camera with 160 nm pixel size. The signal was collected using the following settings: 512 × 512 pixel region, no binning, pixel depth 16-bit, exposure time 50 ms, live-cell observation and 2D-STORM (lens out), zoom 1x, lens x0.4, and for live-cell observation at 37 °C, the correction collar was set to position 8160.
5 x 10^4 CHO-MR or 1 x 10^5 WT, MR^−/− BMDC or BMDM were seeded in 8-well glass-bottomed microscopy slides (Ibidi, 80827) in complete medium. After equilibration in the microscope incubator, fluorescent glycan was added at 5 nM for CHO-MR and 10 nM for BMDC or BMDM experiments. Then, cells were brought into focus using brightfield illumination and 2000 frames (at 50 ms intervals) were recorded within a single field-of-view at 40–60% of maximum 647 nm laser power using TIRF illumination. For indicated experiments, Cytochalasin D (Focus Biomolecules) was added to a final concentration of 10 µM for 30 min prior to acquisition.
Processing of recordings using Glyco-PAINT-APP was performed as described in a step-by-step procedure in the Supplementary Software Manual in the Supplementary Information and accompanying Supplementary Videos 1 and 2. For the TrackMate processing, a batch file (Experiment Info.csv) containing the experiment metadata and tracking parameters was created. Threshold values were set to 5, 10 or 15 such that no more than 1.500.000 spots were detected. Recordings were then processed in TrackMate using the ‘Run TrackMate Batch’ plugin provided by the Glyco-PAINT-APP. Through this plugin, spot detection and tracking by TrackMate[70] was performed as indicated in the batch file using the Simple LAP tracker algorithm with a maximum frame gap of 3, a max linking distance of 0.6 μm and a gap closing max distance of 1.2 μm. Tracks with only two spots were discarded. For the parameter sensitivity analysis, each tracking or spot detection was varied as indicated, whilst the others were kept at aforementioned values (Basis scenario).
With the Glyco-PAINT-APP utility ‘Generate Squares’, a grid of squares was overlaid, and kinetic properties for each square were calculated. Default parameters for grid processing are (deviations are mentioned in figure captions): Nr of Squares in row 20, Minimum Tracks to Calculate Tau 20, Min allowable R Squared 0.1, Min Required Density Ratio 2, Maximum Allowable Variability 10 and Neighbour Mode Free.
For every recording, a background track count was calculated by averaging the track count of the 40 (10% of the total number of squares) least dense squares. Only squares for which the track count exceeded the Min Required Density Ratio of 2 were considered (and the remaining ignored as background). For each square, the variability was calculated and only squares for which the variability was less than the Maximum Allowable Variability of 10 were considered. For squares meeting both the Minimum Required Density Ratio and Maximum Allowable Variability criteria, and containing at least the Minimum Tracks to Calculate Tau kinetic parameters, including kon, koff and MSD were calculated as in Riera et al.[10], or copied from the TrackMate Tracks table output (for velocity, displacement, and track duration).

- koff−1 (CHO-MR + CytD): 85 ms
- kon (CHO-MR + CytD): 8.2 evts μm−2 sec−1
- koff−1 (CHO-MR): 91 ms
- kon (CHO-MR): 6.2 evts μm−2 sec−1
Substance: Ac-Lys(Man)-Gly-Lys(Man)-TEG-Asp-Glu-Val-Ser-Gly-Leu-Glu-Gln-Leu-Glu-Ser-Ile-Ile-Asn-Phe-Glu-Lys-Leu-Ala-Ala-Ala-Ala-Ala-Lys(sCy5)-NH2 ({Ac-K(Man)-Gly-K(Man)-TEG}-DEVSGLEQLESIINFEKLAAAAAK(sCy5)-NH2) [2 Mono(2), bivalent monomannosylated OVA SLP with sulfo-Cy5]

- koff−1 (CHO-MR + CytD): 115 ms
- kon (CHO-MR + CytD): 8.9 evts μm−2 sec−1
- koff−1 (CHO-MR): 117 ms
- kon (CHO-MR): 5.2 evts μm−2 sec−1
Substance: Ac-Lys(Man)-Lys(Man)-Lys(Man)-Lys(Man)-Lys(Man)-Lys(Man)-TEG-Asp-Glu-Val-Ser-Gly-Leu-Glu-Gln-Leu-Glu-Ser-Ile-Ile-Asn-Phe-Glu-Lys-Leu-Ala-Ala-Ala-Ala-Ala-Lys(sCy5)-NH2 ({Ac-K(Man)-K(Man)-K(Man)-K(Man)-K(Man)-K(Man)-TEG}-DEVSGLEQLESIINFEKLAAAAAK(sCy5)-NH2) [6 Mono(3), hexavalent monomannosylated OVA SLP with sulfo-Cy5]

- koff−1 (CHO-MR + CytD): 144 ms
- kon (CHO-MR + CytD): 7.1 evts μm−2 sec−1
- koff−1 (CHO-MR): 79 ms
- kon (CHO-MR): 2.8 evts μm−2 sec−1
Substance: Ac-Lys(triMan)-TEG-Asp-Glu-Val-Ser-Gly-Leu-Glu-Gln-Leu-Glu-Ser-Ile-Ile-Asn-Phe-Glu-Lys-Leu-Ala-Ala-Ala-Ala-Ala-Lys(sCy5)-NH2 (DEVSGLEQLESIINFEKLAAAAAK; Ac-Lys(triMan)-TEG, sulfo-Cy5, C-amide; printed: Asp-Glu-Val-Ser-Gly-Leu-Glu-Gln-Leu-Glu-Ser-Ile-Ile-Asn-Phe-Glu-Lys-Leu-Ala-Ala-Ala-Ala-Ala-Lys) [1 Tri(4), monovalent trimannosylated OVA SLP with sulfo-Cy5]

Second part, the substance before the results:

Substance: Ac-Lys(Man)-TEG-Asp-Glu-Val-Ser-Gly-Leu-Glu-Gln-Leu-Glu-Ser-Ile-Ile-Asn-Phe-Glu-Lys-Leu-Ala-Ala-Ala-Ala-Ala-Lys(sCy5)-NH2 ({Ac-K(Man)-TEG}-DEVSGLEQLESIINFEKLAAAAAK(sCy5)-NH2) [1 Mono(1), monovalent monomannosylated OVA SLP with sulfo-Cy5]
- koff−1 (CHO-MR + CytD): 63 ms
- kon (CHO-MR + CytD): 3.9 evts μm−2 sec−1
- koff−1 (CHO-MR): 68 ms
- kon (CHO-MR): 3.8 evts μm−2 sec−1

Substance: Ac-Lys(triMan)-Gly-Lys(triMan)-TEG-Asp-Glu-Val-Ser-Gly-Leu-Glu-Gln-Leu-Glu-Ser-Ile-Ile-Asn-Phe-Glu-Lys-Leu-Ala-Ala-Ala-Ala-Ala-Lys(sCy5)-NH2 (DEVSGLEQLESIINFEKLAAAAAK; two Lys(triMan), TEG, sulfo-Cy5, C-amide; printed: Asp-Glu-Val-Ser-Gly-Leu-Glu-Gln-Leu-Glu-Ser-Ile-Ile-Asn-Phe-Glu-Lys-Leu-Ala-Ala-Ala-Ala-Ala-Lys) [2 Tri(5), bivalent trimannosylated OVA SLP with sulfo-Cy5]
- koff−1 (CHO-MR + CytD): 108 ms
- kon (CHO-MR + CytD): 4.6 evts μm−2 sec−1
- koff−1 (CHO-MR): 117 ms
- kon (CHO-MR): 5 evts μm−2 sec−1

Substance: Ac-Lys(triMan)-Lys(triMan)-Lys(triMan)-Lys(triMan)-Lys(triMan)-Lys(triMan)-TEG-Asp-Glu-Val-Ser-Gly-Leu-Glu-Gln-Leu-Glu-Ser-Ile-Ile-Asn-Phe-Glu-Lys-Leu-Ala-Ala-Ala-Ala-Ala-Lys(sCy5)-NH2 (DEVSGLEQLESIINFEKLAAAAAK; six Lys(triMan), TEG, sulfo-Cy5, C-amide; printed: Asp-Glu-Val-Ser-Gly-Leu-Glu-Gln-Leu-Glu-Ser-Ile-Ile-Asn-Phe-Glu-Lys-Leu-Ala-Ala-Ala-Ala-Ala-Lys) [6 Tri(6), hexavalent trimannosylated OVA SLP with sulfo-Cy5]
- koff−1 (CHO-MR + CytD): 85 ms
- kon (CHO-MR + CytD): 4.8 evts μm−2 sec−1
- koff−1 (CHO-MR): 101 ms
- kon (CHO-MR): 6.2 evts μm−2 sec−1
